The source of these data is patent US12227593B2, “Site-specific conjugation of glycosylated monoclonal antibodies with transglutaminase” (Janssen Biotech, Inc., priority 2020, dated 2025).

For this experiment, the target named is T1, MTG (Streptomyces mobaraensis, UniProt P81453).
T1 construct: purchased Activa TI or Zedira
T1 sequence (P81453 77-407): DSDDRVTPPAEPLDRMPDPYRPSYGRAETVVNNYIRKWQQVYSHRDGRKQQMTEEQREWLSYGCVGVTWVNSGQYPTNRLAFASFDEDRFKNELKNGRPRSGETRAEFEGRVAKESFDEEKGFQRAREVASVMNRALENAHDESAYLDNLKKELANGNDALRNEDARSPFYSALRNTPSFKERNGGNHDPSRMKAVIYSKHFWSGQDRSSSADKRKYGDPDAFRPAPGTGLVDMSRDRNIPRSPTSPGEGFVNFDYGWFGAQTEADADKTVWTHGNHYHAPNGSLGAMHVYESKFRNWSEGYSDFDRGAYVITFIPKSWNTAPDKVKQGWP
Nature of the experiment: MTG-catalyzed conjugation of 3-APA to mAbs, degree of labeling (DOL) by LC-MS. The experiment is classed as biochemical, S. mobarensis. Particulars: different IgG backgrounds, MTG and 3-APA at 37° C., per full mAb. As for the experimental part:
To assess the suitability of the mAb variants for MTG-catalyzed conjugation, intact mAbs (1 mg/mL) were reacted with 3-azido propylamine (3-APA; 20-100-fold molar excess) and MTG (Activa TI, 5-20% w/v or Zedira, 5-20 units/mg of mAb) in PBS buffer at 22-37° C. for 30 min to overnight. Reactions were stopped by the addition of MTG blocker (Zedira) to 100 μM and analyzed by LC-MS following deglycosylation with PNGase F and reduction with dithiothreitol. The degree of labeling (DOL) was determined by mass spectrometry.
LC-MS was performed on an Agilent 1260 HPLC system connected to an Agilent G6224 MS-TOF Mass Spectrometer. LC was run on an Agilent RP-mAb C4 column (2.1×50 mm, 3.5 micron) at a flow rate of 1 mL/min with the mobile phase 0.1% formic acid in water (A) and 0.1% formic acid in acetonitrile (Sigma-Aldrich Cat #34688) (B) and a gradient of 20% B (0-2 min), 20-60% B (2-3 min), 60-80% B (3-5.5 min). The instrument was operated in positive electro-spray ionization mode and scanned from m/z 600 to 6000. Mass to charge spectrum was deconvoluted using the Maximum Entropy algorithm and DOL was estimated using relative intensities of the deconvoluted masses corresponding to intact mAb (for intact mass) or mAb heavy chain (for reduced mass) with the addition of multiples of 83 Da (corresponding to 3-APA).
Instrument settings included: capillary voltage 3500V; fragmentor 175V; skimmer 65V; gas temperature 325C; drying gas flow 5.0 L/min; nebulizer pressure 30 psig; acquisition mode range 100-7000 with 0.42 scan rate.

Consider Panitumumab [Panitumumab WT], for which the “DOL 18 hr” value is recorded as 1.2.

Turning to “Panitumumab WT deglycosylated: deglycosylated WT panitumumab”, the “DOL 18 hr” value is 2.0.

Regarding Pertuzumab [Pertuzumab WT], the “DOL 18 hr” value turned out to be 1.2.

For the substance “Pertuzumab WT deglycosylated: deglycosylated WT pertuzumab”, the “DOL 18 hr” value is on record as 2.0.
